Source: the RNAGym collection of RNA variant scans (doi:10.1073/pnas.2313332121)

B1: TPR t1 (parent)
chain: GACCAAUCUGCCCUCAGAGCUCGAGAACAUCUUCGGAUGCAGAGGAGGCAGGCUUCGGUGGCGCGAUAGCGCCAACGUCCUCAACCUCCAAUGCAUCCCACCACAUGAUGAUGCCUGAAGAGCCUUGGUUUUUUG

Variants of: B1
Test: polymerase ribozyme fitness, log enrichment relative to wild type (log ratio); higher = more active; in vitro selection for triplet polymerase activity
How it was run: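 To select mutant libraries of each subunit of a heterodimeric triplet polymerase ribozyme, built by PCR and transcribed, each was annealed with a biotinylated primer, partner subunit and triplets, then incubated frozen at −7 °C. Extended constructs were gel-excised, captured on streptavidin beads and amplified by RT-PCR, in one round carried out in triplicate. Illumina sequencing of input and output libraries kept genotypes with ≥10 input reads and ≥1 read per output. Fitness is the base-2 logarithm of genotype enrichment relative to wild-type enrichment, from inverse-variance-weighted replicate averages.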

Row | Variant | polymerase ribozyme fitness (log ratio)
1 | C104U G117U U132A | -1.97
2 | A95U G117C | -4.23
3 | C97U U133A | -0.824
4 | U96A A111G | -1.84
5 | G113A U125C | -1.17
6 | C102U U109A | -6.07
7 | C97U U112A | 0.716
8 | G113A G122C | -3.36
9 | A95U G127A | -2.95
10 | C98A C115U C123U | -7.67
11 | A111C U133C | 1.26
12 | U106A U112A | 0.701
13 | A105C U109A U133C | -5.16
14 | C104A C124U U130A | -3.43
15 | C101G G127A | -2.28
16 | U109A G110U | -3.28
17 | U109G U132A | -3.91
18 | C98U C115A | -2
19 | C98U U116A | -4.71
20 | G113A G128C | -2.85
21 | A111G G117C | -4.52
22 | A105G G120C | -1.97
23 | A105G G120U | -2.44
24 | A100U U106C | -0.792

Row | Variant | polymerase ribozyme fitness (log ratio)
25 | A105G U112C | -0.683
26 | G107A U112C | -3.85
27 | G110U G120U | -2.75
28 | A95G | 0.119
29 | A95U | -0.816
30 | A95C | -0.933
31 | A95G C97U A105U G122U | -4.71
32 | C99U C115A | -3.86
33 | U106A U109A | -3.73
34 | G110A A121U | 0.16
35 | G107A G113C | -5.82
36 | C101G C102U G117A | -7.15
37 | C101G G117A | -3.52
38 | C101A A105C A118U | -4.79
39 | G113U C115A | -4.42
40 | C94U C99U U125A | -3.61
41 | C99U C123A | -3.32
42 | A111C G113U | -3.68
43 | C101U U106C A111C | -0.324
44 | G113U G120A | -2.2
45 | C104U G117A | -0.723
46 | C104A G117C U131C | -4.93
47 | C94A U96A | -6.34
48 | U106C C123G U133G | -1.72

Row | Variant | polymerase ribozyme fitness (log ratio)
49 | C102A U112G U132A | -2.53
50 | C97U U112C A121C | 1.3
51 | G113C G122A G135U | -4.5
52 | C104A G128A | -3.67
53 | C94U A121G | 1.59
54 | A111C G127A | -2.45
55 | C98A G120U | -4.6
56 | U112C C124G | 1.79
57 | C101U G107A | -4.66
58 | U96A A119U | -1.13
59 | C98U U125A | -1.46
60 | C94G C114U G128C | -3.47
61 | C114A A119U | -3.28
62 | C98U G117A | -2.99
63 | C101A G127C | -1.82
64 | C98U C104U U112A | -2.26
65 | C101U C124A | 1.17
66 | U96C G128U | -1.67
67 | U96C C102U G113C | -4.89
68 | A95C C97U C101G | -3.36
69 | C102A G113A | -2.68
70 | G113U U133A | -3.57
71 | A111C A119U U131C | 0.0159
72 | C102U A121U | 0.0802

Row | Variant | polymerase ribozyme fitness (log ratio)
73 | C101A C104A A121C | -0.368
74 | G110U U112C | -2.02
75 | U96G C114A | 0.0255
76 | C97G U112G | -5.5
77 | U112A G120C | -0.182
78 | U112C A121G | 2.63
79 | G113A C123G C124A | -3.66
80 | G113A C114A U125A U133A | -3.52
81 | G110A G122U | -1.41
82 | A105U G117A | -4.52
83 | C94U U112A C124G | 1.39
84 | G113U U129G | -5.28
85 | A100U C123G | -1.75
86 | A100C U109A | -6.83
87 | C99A C123A | -5.64
88 | C101G | -1.66
89 | C101U | -0.0389
90 | C101A | -1.14
91 | C101A C114A | -2.19
92 | C101A C114U | -2.99
93 | C97U G122A | -1.08
94 | G113U C124A | -1.53
95 | C101U C123A | 0.0488
96 | A100C U133G | -1.12

Row | Variant | polymerase ribozyme fitness (log ratio)
97 | C97A C123G | -3.19
98 | A103G U130A | -5.53
99 | A111G G120A | -0.416
100 | A108U U129A | -6.43
101 | C94U G110A | -1.18
102 | U112C C124G G128A | -0.155
103 | U106C G107U | -4.63
104 | C114A U131C | -1.66
105 | C94U G117U | 0.0636
106 | A108C | -3.71
107 | A108G | -1.19
108 | A108U | -4.97
109 | A103U C124G U131C | -2.6
110 | C94G C115A | -0.789
111 | C97A U131A | -3.97
112 | C98U A121C U125A U129A | -1.75
113 | U106A U112G G117C | -5.9
114 | C98G C124U | -5.51
115 | U112C A118U | 1.35
116 | A108G U112A | -2.86
117 | C97U A121U | 1.5
118 | C102U G128C U129A | -4.82
119 | U96G G110U | -2.73
120 | U96A C124U | 1.03

Row | Variant | polymerase ribozyme fitness (log ratio)
121 | A111C C114G | -3.93
122 | G110C G122U | -4.38
123 | G113A U126G | -3.39
124 | C97G C102G A111G | -6.52
125 | C104A G110U | -3.77
126 | A111G | 0.509
127 | A111U | -2.62
128 | A111C | 0.388
129 | C104U U106A U109A C114U C123U | -6.98
130 | A103U C123U | -3.47
131 | A95U U96A C101G U106C C124A | -4.41
132 | U112A U126A | 1.04
133 | C94A G127C | -2.37
134 | C99U C101U | -2.29
135 | C99U C101A | -4.62
136 | A105U G110U | -6.12
137 | A95U U130C | -0.986
138 | C98U A119U | -1.28
139 | C101U A111C U116G | -2.46
140 | G113C C124U | -2.58
141 | A100C U112G | -0.251
142 | A95U U106G G120U | -2.83
143 | U96A U131C | -1.19
144 | G113U G120A U132A | -3.83

Row | Variant | polymerase ribozyme fitness (log ratio)
145 | U109A A111C C114A G117C | -6.37
146 | C99U C114U | -4.12
147 | C94U U125G | -1.32
148 | C94U U125A | -0.818
149 | A95G G110U U130G U132A | -1.43
150 | U112G G127A | -1.12
151 | U96C G110C | -4
152 | A100C U112C A118G | 0.0171
153 | A111G G122U U129C | -5.05
154 | C94U C102U U126C | -2.66
155 | U109A G135U | -4.82
156 | C94A G117C | -4.31
157 | U109A U116C | -7.07
158 | A100U U112G | -0.123
159 | G110A G135U | -1.92
160 | G110A U132A | -1.37
161 | C94A U109A | -5.96
162 | U112G G135U | -1.01
163 | C98U G120C | -0.208
164 | C94A G110C G120C | -6.12
165 | C101A U112G C115A | -0.657
166 | U109A C123A | -6.83
167 | U109A C123U | -3.85
